According to publication doi:10.1101/2024.07.30.605722 (bioRxiv, 2024):
Blank lines part the entries; values can stand above or below the molecule they belong to.

Tests used:
PDIA6 a^0 domain (human) = assay: co-sedimentation
native MS = biological target: the molecule itself; assay: native MS

b amount left in the supernatant (PDIA6 a^0 domain (human)): 60%
Molecule: MBP fusion protein of PDIA6 b domain (domain or fragment)

B1: PDIA6 (enzyme, human, UniProt Q15084 20-440, looked up)
chain: LYSSSDDVIELTPSNFNREVIQSDSLWLVEFYAPWCGHCQRLTPEWKKAATALKDVVKVGAVDADKHHSLGGQYGVQGFPTIKIFGSNKNRPEDYQGGRTGEAIVDAALSALRQLVKDRLGGRSGGYSSGKQGRSDSSSKKDVIELTDDSFDKNVLDSEDVWMVEFYAPWCGHCKNLEPEWAAAASEVKEQTKGKVKLAAVDATVNQVLASRYGIRGFPTIKIFQKGESPVDYDGGRTRSDIVSRALDLFSDNAPPPELLEIINEDIAKRTCEEHQLCVVAVLPHILDTGAAGRNSYLEVLLKLADKYKKKMWGWLWTEAGAQSELETALGIGGFGYPAMAAINARKMKFALLKGSFSEQGINEFLRELSFGRGSTAPVGGGAFPTIVEREPWDGRDGELPVEDDIDLSDVELDDLGKDEL
stoichiometry N (native MS): 2
